In the supplement of paper PMC6757056:
± gives the standard deviation of the averaged measurements.

B1: library; a variant is named by its letters at N, in order (parent)
chain: GCUGUCACCGAGAAACUGUGAAGUAUAUCUUAAACCUGGGCACUUAAAAGAUAUAUGGAGUUAGUAGUGCAACCUGCUCGGUCUGAUGAGUCCNNNNNNGGACGAAACAGC

How the values were obtained:
[1] = variants of: B1; assay: FACS-Seq fitted mean relative fluorescence mCherry/BFP without ligand (log10 relative fluorescence); HEK293T; ligand: cyclic di-GMP (c-di-GMP-II aptamer); higher = higher reporter protein expression; details: ligand present: no
Procedure, shortened: (§1)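 Genomic DNA from 6 mCherry/BFP sort bins was PCR-amplified, barcoded and sequenced on MiSeq. The sorted cells were enriched HEK293T libraries, lentivirally transduced with a ribozyme-switch mCherry reporter and an EF1α-BFP marker, incubated with or without ligand for 48 h. Fluorescence derives from a normal fit to the bin counts. The fit was on log10(mCherry/BFP), and means were scaled to five spiked-in control ribozymes.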

[2] = variants of: B1; assay: normalized RNA/DNA level without ligand (relative to sTRSVctl = 100) (log10 (% of sTRSVctl)); HEK293T; ligand: cyclic di-GMP (c-di-GMP-II aptamer); higher = less ribozyme self-cleavage, higher mRNA level; details: reporter: mCherry (pCS4076), ligand present: no
Procedure, shortened: (§2)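 HEK293T cells were transfected with library plasmids carrying ribozyme switches linked to an mCherry reporter, or an eGFP reporter in some ligand experiments, at 4 µg per well of a 6-well plate, with any ligand added 1 h beforehand. After 72 h, total RNA was extracted with EDTA, reverse-transcribed, amplified, barcoded and sequenced. RNA level was defined as RNA reads over DNA reads, normalized to a spiked-in non-cleaving sequence or to the top-ranked sequences. That value was multiplied by 100 and converted to log10, the top set was 25 sequences, and only sequences with ≥100 DNA reads were retained.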

[3] = variants of: B1; assay: FACS-Seq fitted mean relative fluorescence mCherry/BFP with ligand (log10 relative fluorescence); HEK293T; ligand: cyclic di-GMP (c-di-GMP-II aptamer); ligand concentration (+) FACS-Seq: 1 mM; higher = higher reporter protein expression; details: ligand present: yes
Procedure, shortened: as §1

[4] = variants of: B1; assay: normalized RNA/DNA level with ligand (relative to sTRSVctl = 100) (log10 (% of sTRSVctl)); HEK293T; ligand: cyclic di-GMP (c-di-GMP-II aptamer); ligand concentration (+) RNA-Seq: 1 mM; higher = less ribozyme self-cleavage, higher mRNA level; details: reporter: mCherry (pCS4076), ligand present: yes
Procedure, shortened: as §2

| Variant | FACS-Seq fitted mean (log10) [1] | normalized RNA/DNA level without ligand (log10) [2] | FACS-Seq fitted mean (log10) [3] | normalized RNA/DNA level with ligand (log10) [4] |
| --- | --- | --- | --- | --- |
| GCUGUCACCGAGAAACUGUGAAGUAUAUCUUAAACCUGGGCACUUAAAAGAUAUAUGGAGUUAGUAGUGCAACCUGCUCGGUCUGAUGAGUCCCUAAUAGGACGAAACAGC [CUAAUA] | -0.533 ± 0.025 | 1.39 ± 0.066 | -0.316 ± 0.011 | 1.6 ± 0.12 |
| GCUGUCACCGAGAAACUGUGAAGUAUAUCUUAAACCUGGGCACUUAAAAGAUAUAUGGAGUUAGUAGUGCAACCUGCUCGGUCUGAUGAGUCCACUAAGGGACGAAACAGC [ACUAAG] | -0.34 ± 0.089 | 1.5 ± 0.12 | -0.165 ± 0.11 | 1.71 ± 0.026 |
| GCUGUCACCGAGAAACUGUGAAGUAUAUCUUAAACCUGGGCACUUAAAAGAUAUAUGGAGUUAGUAGUGCAACCUGCUCGGUCUGAUGAGUCCAUGAACGGACGAAACAGC [AUGAAC] | -0.0137 ± 0.15 | 1.649 ± 0.0059 | 0.334 ± 0.026 | 1.79 ± 0.1 |
| GCUGUCACCGAGAAACUGUGAAGUAUAUCUUAAACCUGGGCACUUAAAAGAUAUAUGGAGUUAGUAGUGCAACCUGCUCGGUCUGAUGAGUCCGAAUAGGGACGAAACAGC [GAAUAG] | -0.662 ± 0.05 | 1.64 ± 0.018 | -0.40149 ± 0.00037 | 1.78 ± 0.15 |
| GCUGUCACCGAGAAACUGUGAAGUAUAUCUUAAACCUGGGCACUUAAAAGAUAUAUGGAGUUAGUAGUGCAACCUGCUCGGUCUGAUGAGUCCCAUCUCGGACGAAACAGC [CAUCUC] | -0.977 ± 0.064 | 1.74 ± 0.051 | -0.802 ± 0.028 | 1.86 ± 0.11 |
| GCUGUCACCGAGAAACUGUGAAGUAUAUCUUAAACCUGGGCACUUAAAAGAUAUAUGGAGUUAGUAGUGCAACCUGCUCGGUCUGAUGAGUCCGCCGUGGGACGAAACAGC [GCCGUG] | -0.238 ± 0.056 | 1.6 ± 0.097 | 0.0457 ± 0.053 | 1.8 ± 0.06 |
| GCUGUCACCGAGAAACUGUGAAGUAUAUCUUAAACCUGGGCACUUAAAAGAUAUAUGGAGUUAGUAGUGCAACCUGCUCGGUCUGAUGAGUCCAGUGCCGGACGAAACAGC [AGUGCC] | 0.324 ± 0.079 | 1.82 ± 0.11 | 0.275 ± 0.078 | 1.92 ± 0.15 |
| GCUGUCACCGAGAAACUGUGAAGUAUAUCUUAAACCUGGGCACUUAAAAGAUAUAUGGAGUUAGUAGUGCAACCUGCUCGGUCUGAUGAGUCCAGGAAUGGACGAAACAGC [AGGAAU] | -0.199 ± 0.032 | 1.6 ± 0.042 | 0.123 ± 0.1 | 1.76 ± 0.1 |
| GCUGUCACCGAGAAACUGUGAAGUAUAUCUUAAACCUGGGCACUUAAAAGAUAUAUGGAGUUAGUAGUGCAACCUGCUCGGUCUGAUGAGUCCUUCCGUGGACGAAACAGC [UUCCGU] | 0.0201 ± 0.13 | 1.7 ± 0.02 | 0.296 ± 0.053 | 1.83 ± 0.08 |
| GCUGUCACCGAGAAACUGUGAAGUAUAUCUUAAACCUGGGCACUUAAAAGAUAUAUGGAGUUAGUAGUGCAACCUGCUCGGUCUGAUGAGUCCAUAGGUGGACGAAACAGC [AUAGGU] | -0.384 ± 0.071 | 1.51 ± 0.061 | -0.171 ± 0.092 | 1.69 ± 0.14 |
| GCUGUCACCGAGAAACUGUGAAGUAUAUCUUAAACCUGGGCACUUAAAAGAUAUAUGGAGUUAGUAGUGCAACCUGCUCGGUCUGAUGAGUCCCACAGAGGACGAAACAGC [CACAGA] | -0.384 ± 0.025 | 1.53 ± 0.058 | -0.0508 ± 0.039 | 1.74 ± 0.1 |
| GCUGUCACCGAGAAACUGUGAAGUAUAUCUUAAACCUGGGCACUUAAAAGAUAUAUGGAGUUAGUAGUGCAACCUGCUCGGUCUGAUGAGUCCAGAAAAGGACGAAACAGC [AGAAAA] | -0.765 ± 0.013 | 1.42 ± 0.084 | -0.587 ± 0.043 | 1.61 ± 0.089 |
| GCUGUCACCGAGAAACUGUGAAGUAUAUCUUAAACCUGGGCACUUAAAAGAUAUAUGGAGUUAGUAGUGCAACCUGCUCGGUCUGAUGAGUCCUAAACAGGACGAAACAGC [UAAACA] | 0.0579 ± 0.081 | 1.742 ± 0.0053 | 0.349 ± 0.078 | 1.85 ± 0.079 |
